Measured values from patent US20240059762A1 (SINGLE CELL TECHNOLOGY, published 2024).

B1: SCT-Pa15 (antibody, mouse IgG1, kappa, V domains shown)
VH: QVQVKQSGPGLVQPSQSLSITCTVSGFSSTSYAIHWVRQSPGKGLEWLGVIWSGGTTDYNAAFISRLSFSKDNSKSQLFFKMNSLQADDTAMYYCARGNYYGMDYWGQGTSVTVSS
VL: DIVVTQSPASLAVSLGQRATISCRASESIDYDGDSYVNWYQQKPGQPPNLLIYAASNLESGIPARFSGGGSGTDFTLTIHPVEEEDAATYYCLQSYETPWTFGGGTKLEIKR
B2: SCT-Pa17 (antibody, mouse IgG1, kappa, V domains shown)
VH: QVQLQQPGAELVKPGASVKLSCKASGYAFTSSWINWVKRRPGQGLEWIGNVYPRSSSPNYNEKFKGKATLTVDTSSSTAYMQLSSLTSDDSAVYFCARGYGSYWYFDVWGAGTSVTVSS
VL: DIQMTQSSSSFSVSLGDRVTITCKASEDIYNRLAWYQQKPGNAPRLLISGATTLETGVPSRFSGSGSGKDYALSITSLQTEDVSTYYCQEYWSLSPTFGGGTKLEIKR
B3: SCT-Pa05 (antibody, mouse IgG1, kappa, V domains shown)
VH: EVQLQQSGAELVKPGASVKLSCTTSGFNIKDYYFHWVKQRTEQGLEWIGRIDPEDGETEYAPKFRDKATITADTSSNTAYLQLSSLTSEDTAIYYCARSLYYWGQGTTLTVSS
VL: DIVMTQSPSSLSVWAGEKVTMSCKSSQSLLNSGDQKNYLTWYQQKPGQSPKLLIYETSTRDYGVPDRFTGSGSGADFTLTISSVQAEDLAVYYCLNDLTYPLTFGAGTKLELKR
B4: SCT-Pa19 (antibody, mouse IgG1, kappa, V domains shown)
VH: QVQLQQPGAELVRPGSSVKLSCKASGYTFTNYWMLWVKQRPMQGLEWIGSIDPSDSETHYNQKFKDKATLTVDKSSSTAYMRLGSLTSEDSAVYYCARDSYGWYFDVWGTGTTVTVSS
VL: DIVMTQSQKFMSTSVGDRVSVTCKASQNVGSNVAWYQQKSGQSPKALIYSASYRYSGVPDRFTGSGYGTDFTLTISNVQSEDLAEYFCQQYNNYPLTFGAGTKLELKR
B5: SCT-Pa11 (antibody, mouse IgG1, kappa, V domains shown)
VH: EVQLQQSGPELVKPGASVKMSCKASGYTFTSYVIHWVKQKPGQGLEWIGYINPYNDGTEYNEKFKGKATLTSDKSSSTAYMELSSLTSEDSAVYYCSRDDYNNRFAYWGPGTLVTVSA
VL: DIQMTQSPASLSASVGETVTITCRPSENIYSYLAWYQQKQGKSPQLLVYNAKTLVEGVPSRFSGSGSGTQFSLKINSVQPEDCGSYYCLHHFGTPWTFGGGTILEIKR
B6: SCT-Pa04 (antibody, mouse IgG1, kappa, V domains shown)
VH: EVQLQQSGPELVKPGASVKMSCKASGYSFTSYVMHWVKQKPGQGLEWIGYINPYNDGTKYNEKFKGKATLTSDKSSSTAFMDLSSLTSDDSAVYYCSRDDYSNPPFAYWGQGTLVTVSA
VL: SIVMTQTPKFLLVSAGDRITITCKASQSVSNNVAWYQQKPGQSPTLLISYASNRFTGVPDRFTGSGYGTDFTFTISIVQAEDLAVYFCQQDYDSPYTFGGGTKLEIKR
B7: SCT-Pa09 (antibody, mouse IgG1, kappa, V domains shown)
VH: QVQLQQPGAELVKPGTSVRLSCQASGYTFTSSWIHWVKQRTGQGLEWIGEISLTNGDINYNEKFTSKATLTVDKSSSTAYMQLSSLTSEDSAVYYCTIIPDGYSLYWYFDVWGAGTTVTVSS
VL: QIVLSQSPPILSASPGARVTMTCRASSSVNYMHWYQQKPGSSPKPWIYATSNLASGVPVRFSGSGSGTSYSLTISRVEAEDAATYYCQQWSSNPPTFGGGTKLEIKR
B8: SCT-Pa02 (antibody, mouse IgG1, kappa, V domains shown)
VH: QMQLKQSGPGLVQPSQSLSITCTVSGFSLTSYGVHWVRQSPEKGLEWLGVIWSGGGTDYNAAFISRLSISKDNSKSQVFLKMSSLQTDDTAIYYCARGAYYSLDYWGQGTTLTVSS
VL: DIVLTQSPASLAVSLGQRATISCRASESVDYDGDNYMNWYQQKPGQSPKLLIYATSNLESRIPARFSGSGSGTEFTLNIHPVEEEDAATYYCLQSYDVPYTFGSGTKLEMKR
B9: SCT-Pa03 (antibody, mouse IgG1, kappa, V domains shown)
VH: QVQLKQSGAELVRPGASVKLSCKASGYTFTDYYINWVKQRPGQGLEWIARIYPGNNYAYYDEKFKGKATLTAEKSSSTAYMQLSSLTSEDSAVYFCAKDDGYRFAYWGQGTLVTVSA
VL: DIQMTQSSSYLSVSLGGRVTITCKASDHINNWLAWYQQKPGNAPRLLISGATSLETGVPSRFSGSGSGKDYTLSITSLQTEDVATYYCQQYWSTPPTFGGGTKLEIKR
B10: SCT-Pa01 (antibody, mouse IgG1, kappa, V domains shown)
VH: QVTLKESGPGILQPSQTLSLTCSFDGFSLSTFGMGVGWIRQPSGRGLEWLAHIWWDDDKNYKPALKSRLTISKDTSKNQVFLKIANVDTADTATYYCTRMREDSSDYVYYIMDYWGQGTSVIVAS
VL: QIVLTQSPSIMSASPGEKVTISCSASSSVSYMYWYQQKPGSSPRPWIYRTSNLASGVPARFSGSGSGTSYSLTITSMEAEDAATYYCQLYHSYPPTWTFGGGTKLEIKR
B11: SCT-Pa16 (antibody, mouse IgG1, kappa, V domains shown)
VH: QVQLQQPGTELVKPGASVKLSCKASGYTFTSYWMHWVKQRPGQGLEWIGSVNPSNGGANYNEKFKNKATLTVDKSSSTAYMQLSSLTSEDSAVYYCARRNGFPYYFDYWGQGTTLTVSS
VL: DIVMTQSQKFVSTSVGDRVSVTCKASQNVGTNVVWYQQKPGQSPKPLIYSASYRYSGVPDRFTGSGSGTDFTLTISNVQSEDLADYFCHQYNSSPLTFGVGTKLELKR
B12: SCT-Pa10 (antibody, mouse IgG1, kappa, V domains shown)
VH: QVQLQQSGPELVKPGASVKISCKASGYAFSTSWMNWMKQRPGKGLEWIGRIYPGDGETNYNGKFKGKATLTADKSSSTAYMQLSSLTSDDSAVYFCARGANGDYLFYLDYWGQGTTLTVSS
VL: DIQMTQTTSSLSASLGDRVTISCSASQDISDFLNWYQQKPDGTVKLLIYYTSSLHSGVPSRFSGSGSGTDYSLTINNLEPEDIATYYCQQYSKLPYTFGGGTKLEIRR
B13: SCT-Pa12 (antibody, mouse IgG1, kappa, V domains shown)
VH: QVQLQQSGAELARPGASVKLSCKASGYSFTSYGISWVKQRTGQGLEWIGDIYPRSGNTDYNEKFKGKATLTADKSSSTANMQLSSLTSEDSAIYFCARSGDGYLYAMDYWGQGTSVTVSS
VL: DIQMTQTTSSLSASLGDRVTISCRASQDISNYLNWYQQKPDGTVKLLIYYTSRLHSGVPSRFSGSGSGTDYSLTISNLEPEDIAPYYCQQYSKLPYTFGSGTKLEIKR
B14: SCT-Pa18 (antibody, mouse IgG1, kappa, V domains shown)
VH: QVQLQQPGAELVKPGASVKLSCKASGYTFTSYWMQWVKQRPGQGLEWIGEIAPSDSYTNYNQKFKGKATLTVDTSSSTAYMQLSSLTSEDSAVYYCAGGDYYGYDVKTWFAYWGQGTLVTVSA
VL: DIQMTQTTSSLSASLGDRVTISCSASQDISNYLNWYQQKPDGTVKLLIYYTSSLHSGVPSRFSGSGSGTGYSLTISNLEPEDIATYYCQQYSKLPYTFGGGTKLEIKR
B15: SCT-Pa08 (antibody, mouse IgG1, kappa, V domains shown)
VH: QVQLHQSGAELVKPGASVKLSCKASGYTFTEYSIHWVKQRSGQDLEWIGWFNPGTGSIKYNEKFKDKATLTADKSSSTVYMELSRLTSEDSAVYFCARHGGRWVIQWNFDVWGTGTTVTVSS
VL: DIVMSQSPSSLAVSVGEKVTMSCKSSQNLLYSSNQKNFLAWYQQRPGQSPKLLIYWASTRESGVPDRFTGSGTGTDFTLTISSVKAEDLAVYYCQQYYRYPFTFGSGTKLEIKR
B16: SCT-Pa07 (antibody, mouse IgG1, kappa, V domains shown)
VH: EVQLQQSGPELVKPGDSVKMSCKASGYTFTDYYMDWVKQSHGKSLEWIGYIYTNNGDTNYNQKFKGKATLTVDKSSSTAYMELHSLTSEDSAVYYCASLYYSNFFDSWGQGTTLTVSS
VL: ENVLTQSPAIMSATLGEKVTVSCRARSNVKYMYWYQQKSGASPKLLIYYTSNLASGVPARFSGSGSGTSYSLTISSVEAEDAATYYCQQFTSSPFTFGSGTKLEIKR
B17: SCT-Pa14 (antibody, mouse IgG1, kappa, V domains shown)
VH: EVQLQQSGAELVSPGASVKLSCTASGFNIKDDYMHWVKQRPEQGLEWIGRIDPANGNTKYAPKFQDKATITADTSSNTAYLQLSSLTSEDTAVYYCFYSFYIPYTMDFWGQGTSVTVSS
VL: ENVLTQSPAIMSATLGEKVTMSCRASSNVKYMYWYQQKSGASPKLWIYYTSNLTSGVPARFSGSGSGTSYSLTISSVEAEDAATYYCQQFTSSPYTFGSGTKLEIKR
B18: SCT-Pa06 (antibody, mouse IgG1, kappa, V domains shown)
VH: QVTLKESGPGILQPSQTLSLTCSFSGFSLSTYGMGVGWIRQPSGKGLEWLANIWWNDDKNYNSALKSRLTISKDTSNNQLFLRISSVDTADTATYFCAQIPAYYSNSWFAYWGHGTLVTVSA
VL: ENVLTQSPAIMAASPGEKVTMTCSASSSVSSGNFHWYQQKPGTSPKLWIYRTSNLASGVPARFSGSGSGTSYSLTISSMEAEDAATYYCQQWSGYPYTFGSGTKLKIKR
B19: SCT-Pa20 (antibody, mouse IgG1, kappa, V domains shown)
VH: QVQLQQPGAELVKPGASVKLSCKASGYTFTDYWINWVKQRPGQGLEWIGNIYPGSSDTNYNEKFKRKATLTVDTSSSTAYMQLSSLTSDDSAVYYCARRPLFHAMDYWGQGTSVTVSS
VL: DIVLTQSPASLAVTLGQRATISCKASQSINYNGDNYMHWFQQKPGQPTKLLIYTASNLESGVPDRFSGSGSGTDFTLNIHPVEEEDAATYYCQQSKEFPWTFGGGTKLEIKR

Each binder was assayed against T1, Recombinant SARS-CoV-2 N protein His tagged (SARS-CoV-2, UniProt P0DTC9 1-419) (assay: BLI (Octet Red 96E), mAb on anti-mouse Fc biosensor, N protein in solution, global 1:1 fit).
T1 construct: also called nucleocapsid (N) protein; recombinant HIS tagged SARS-CoV-2 N protein
Binder B1 has a Kd of 0.994 nM, a koff of 0.000862 s⁻¹ and a kon of 868000 M⁻¹ s⁻¹.
Work on B2 yielded a Kd of 0.939 nM, a koff of 0.000461 s⁻¹ and a kon of 491000 M⁻¹ s⁻¹.
Work on B3 yielded a Kd of 0.289 nM, a koff of 0.00018 s⁻¹ and a kon of 624000 M⁻¹ s⁻¹.
With B4 the Kd was 0.0283 nM, the koff was 1.26e-05 s⁻¹ and the kon was 444000 M⁻¹ s⁻¹.
Work on B5 yielded a Kd of 0.111 nM, a koff of 5.75e-05 s⁻¹ and a kon of 517000 M⁻¹ s⁻¹.
Binder B6 has a Kd of 0.0328 nM, a koff of 1.64e-05 s⁻¹ and a kon of 498000 M⁻¹ s⁻¹.
With B7 the Kd was 0.0531 nM, the koff was 2.67e-05 s⁻¹ and the kon was 503000 M⁻¹ s⁻¹.
In the case of B8, the Kd is reported as 1 nM, the koff is reported as 0.00073 s⁻¹ and the kon is reported as 730000 M⁻¹ s⁻¹.
B9 gave a Kd of 2.78 nM, a koff of 0.000597 s⁻¹ and a kon of 215000 M⁻¹ s⁻¹.
Work on B10 yielded a Kd of 0.181 nM, a koff of 8.01e-05 s⁻¹ and a kon of 442000 M⁻¹ s⁻¹.
Binder B11 has a Kd of 1.49 nM, a koff of 0.00154 s⁻¹ and a kon of 1.04e+06 M⁻¹ s⁻¹.
Binder B12 has a Kd of 0.335 nM, a koff of 0.000247 s⁻¹ and a kon of 738000 M⁻¹ s⁻¹.
Binder B13 has a Kd of 0.649 nM, a koff of 0.000278 s⁻¹ and a kon of 428000 M⁻¹ s⁻¹.
In the case of B14, the Kd is reported as 0.228 nM, the koff is reported as 0.000127 s⁻¹ and the kon is reported as 557000 M⁻¹ s⁻¹.
In the case of B15, the Kd is reported as 0.897 nM, the koff is reported as 0.000772 s⁻¹ and the kon is reported as 860000 M⁻¹ s⁻¹.
Binder B16 has a Kd of 0.188 nM, a koff of 8.63e-05 s⁻¹ and a kon of 458000 M⁻¹ s⁻¹.
Work on B17 yielded a Kd of 0.128 nM, a koff of 7.23e-05 s⁻¹ and a kon of 566000 M⁻¹ s⁻¹.
With B18 the Kd was 0.504 nM, the koff was 0.00017 s⁻¹ and the kon was 337000 M⁻¹ s⁻¹.
Binder B19 has a Kd of 0.00537 nM, a koff of 3.09e-06 s⁻¹ and a kon of 576000 M⁻¹ s⁻¹.
